Assay results published in publication PMC12114846, “Interleukin-15Rα-Sushi-Fc Fusion Protein Co-Hitchhikes Interleukin-15 and Pheophorbide A for Cancer Photoimmunotherapy” (Pharmaceutics, 2025).

Experiments:
[1] = biological target: recombinant interleukin-15Rα-sushi-Fc fusion protein (human); assay: pull-down; rILR-Fc/PhA NPs incubated with rIL-15 at 37 °C for 30 min in PBS; nanoparticles adsorbed on a Protein A agarose column; free rIL-15 quantified by sandwich ELISA
[2] = biological target: recombinant interleukin-15Rα-sushi-Fc fusion protein (human); assay: not stated; affinity shown in Figure S3A,B; method not told in the main text
[3] = biological target: commercial whole IL-15Rα fusion protein (rIL-15Rα-Fc) (UniProt Q13261); assay: as above
Sequence of commercial whole IL-15Rα fusion protein (rIL-15Rα-Fc) (Q13261 31-205): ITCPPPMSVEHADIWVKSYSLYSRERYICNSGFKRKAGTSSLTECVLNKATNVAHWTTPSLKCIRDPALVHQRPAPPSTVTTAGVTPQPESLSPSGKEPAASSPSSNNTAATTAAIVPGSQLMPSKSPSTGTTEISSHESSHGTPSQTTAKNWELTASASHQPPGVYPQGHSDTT

[4] = biological target: recombinant interleukin-15Rα-sushi-Fc fusion protein (human)
[5] = biological target: recombinant interleukin-15Rα-sushi-Fc fusion protein (human); remark: listed apart in the source
[6] = biological target: commercial whole IL-15Rα fusion protein (rIL-15Rα-Fc) (UniProt Q13261)

Sequence of recombinant wild-type IL-15 (P40933 49-162): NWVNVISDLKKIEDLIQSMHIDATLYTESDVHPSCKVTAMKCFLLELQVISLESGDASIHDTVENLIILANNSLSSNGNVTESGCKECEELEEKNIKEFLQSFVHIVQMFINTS

Row | encapsulation efficiency (percent of rIL-15 held by the rILR-Fc/PhA/rIL-15 NPs) [1] [%] | molar ratio of rIL-15 to rILR-Fc in the nanoparticles [1] | affinity [2] [nM] | affinity [3] [nM] | serum elimination half-life (t1/2) of rIL-15 in mice after i.v. injection of rILR-Fc/PhA/rIL-15 NPs (free rIL-15: 20.24 min) [4] [min] | EC50 of M-07e cell proliferation, rIL-15-wt pre-associated with rILR-Fc (rIL-15-wt alone: 3.26 nM) [5] [nM] | EC50 of M-07e cell proliferation, rIL-15-wt pre-associated with rIL-15Rα-Fc (rIL-15-wt alone: 3.26 nM) [6] [nM] | Substance
1 | 99.5 | 0.81 | 0.24 | 0.115 | 39.4 |  |  | recombinant IL-15 (N72D-mutated human IL-15) (ligand)
2 |  |  |  |  |  | 1.62 | 1.65 | recombinant wild-type IL-15 (from UniProt P40933 49-162) (ligand)
